The experiment has as its target T1, GFP-TRAK1 (mouse, UniProt Q6PD31 1-939).
T1 construct: TRAK1, mouse; also called kinesin adaptor TRAK1
T1 sequence (looked up): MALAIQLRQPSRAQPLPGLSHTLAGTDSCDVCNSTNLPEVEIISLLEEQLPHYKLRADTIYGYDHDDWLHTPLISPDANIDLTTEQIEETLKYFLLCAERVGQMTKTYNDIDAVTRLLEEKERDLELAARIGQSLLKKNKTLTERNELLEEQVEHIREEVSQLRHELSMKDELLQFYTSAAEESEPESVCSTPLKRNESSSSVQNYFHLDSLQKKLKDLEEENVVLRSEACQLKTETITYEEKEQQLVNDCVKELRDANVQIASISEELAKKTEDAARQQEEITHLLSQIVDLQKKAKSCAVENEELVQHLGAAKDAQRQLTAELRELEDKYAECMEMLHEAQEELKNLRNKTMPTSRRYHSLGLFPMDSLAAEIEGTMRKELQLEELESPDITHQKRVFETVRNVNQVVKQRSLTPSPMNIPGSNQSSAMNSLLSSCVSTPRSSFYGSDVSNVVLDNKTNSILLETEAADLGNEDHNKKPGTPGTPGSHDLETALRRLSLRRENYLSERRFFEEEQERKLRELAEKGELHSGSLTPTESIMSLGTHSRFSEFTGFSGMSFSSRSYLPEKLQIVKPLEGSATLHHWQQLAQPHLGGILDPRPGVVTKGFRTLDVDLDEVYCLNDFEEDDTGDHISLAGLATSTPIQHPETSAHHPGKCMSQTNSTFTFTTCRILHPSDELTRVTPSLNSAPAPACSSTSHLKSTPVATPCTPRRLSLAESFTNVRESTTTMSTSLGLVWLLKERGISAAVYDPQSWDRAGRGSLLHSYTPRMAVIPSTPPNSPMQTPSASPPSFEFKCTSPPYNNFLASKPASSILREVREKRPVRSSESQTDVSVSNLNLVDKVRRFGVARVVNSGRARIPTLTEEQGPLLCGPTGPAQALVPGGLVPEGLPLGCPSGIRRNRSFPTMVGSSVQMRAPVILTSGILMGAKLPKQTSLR
The experiment in a line: co-IP; coimmunopurification of mycMiro1 and GFP-TRAK1 from transfected cells, untreated or treated with 10 uM FCCP, 1 h; GFP-TRAP beads per the methods; lysis in 50 mM Tris pH 7.4, 150 mM NaCl, 1 mM EDTA, 0.5% Triton X-100; western blot, densitometry. The conditions noted are these: partners not purified.

B1: Myc-tagged Miro1 (natural protein, UniProt Q8IXI2 1-618, looked up)
chain: MKKDVRILLVGEPRVGKTSLIMSLVSEEFPEEVPPRAEEITIPADVTPERVPTHIVDYSEAEQSDEQLHQEISQANVICIVYAVNNKHSIDKVTSRWIPLINERTDKDSRLPLILVGNKSDLVEYSSMETILPIMNQYTEIETCVECSAKNLKNISELFYYAQKAVLHPTGPLYCPEEKEMKPACIKALTRIFKISDQDNDGTLNDAELNFFQRICFNTPLAPQALEDVKNVVRKHISDGVADSGLTLKGFLFLHTLFIQRGRHETTWTVLRRFGYDDDLDLTPEYLFPLLKIPPDCTTELNHHAYLFLQSTFDKHDLDRDCALSPDELKDLFKVFPYIPWGPDVNNTVCTNERGWITYQGFLSQWTLTTYLDVQRCLEYLGYLGYSILTEQESQASAVTVTRDKKIDLQKKQTQRNVFRCNVIGVKNCGKSGVLQALLGRNLMRQKKIREDHKSYYAINTVYVYGQEKYLLLHDISESEFLTEAEIICDVVCLVYDVSNPKSFEYCARIFKQHFMDSRIPCLIVAAKSDLHEVKQEYSISPTDFCRKHKMPPPQAFTCNTADAPSKDIFVKLTTMAMYPHVTQADLKSSTFWLRASFGATVFAVLGFAMYKALLKQR
notes: Miro1, outer mitochondrial membrane GTPase; also called mycMiro1
Take B1: the “co-IP with FCCP relative to untreated control (1)” value was 0.94 fold of control.

The record behind these values is paper PMC4031514, “Lysine 27 Ubiquitination of the Mitochondrial Transport Protein Miro Is Dependent on Serine 65 of the Parkin Ubiquitin Ligase*” (The Journal of Biological Chemistry, 2014).
